Laboratory results as given in patent US20260092100A1 (ICOSAVAX, published 2026).

T1: hMPV033 antigen (ectodomain 1-472 of the UT-A CL-28 hMPV F mutant fused to I53-50A) (human metapneumovirus, A strain)
T1 construct: A 6-Gly linker replaces the F1/F2 cleavage site; The stabilising mutations T127C, N153C, A185P, V231I, L219K, G294E, T365C and V463C are already in the entry; A GS linker and I53-50A follow; also called hMPV033 F protein; I53-50A-hMPV033
T1 chain: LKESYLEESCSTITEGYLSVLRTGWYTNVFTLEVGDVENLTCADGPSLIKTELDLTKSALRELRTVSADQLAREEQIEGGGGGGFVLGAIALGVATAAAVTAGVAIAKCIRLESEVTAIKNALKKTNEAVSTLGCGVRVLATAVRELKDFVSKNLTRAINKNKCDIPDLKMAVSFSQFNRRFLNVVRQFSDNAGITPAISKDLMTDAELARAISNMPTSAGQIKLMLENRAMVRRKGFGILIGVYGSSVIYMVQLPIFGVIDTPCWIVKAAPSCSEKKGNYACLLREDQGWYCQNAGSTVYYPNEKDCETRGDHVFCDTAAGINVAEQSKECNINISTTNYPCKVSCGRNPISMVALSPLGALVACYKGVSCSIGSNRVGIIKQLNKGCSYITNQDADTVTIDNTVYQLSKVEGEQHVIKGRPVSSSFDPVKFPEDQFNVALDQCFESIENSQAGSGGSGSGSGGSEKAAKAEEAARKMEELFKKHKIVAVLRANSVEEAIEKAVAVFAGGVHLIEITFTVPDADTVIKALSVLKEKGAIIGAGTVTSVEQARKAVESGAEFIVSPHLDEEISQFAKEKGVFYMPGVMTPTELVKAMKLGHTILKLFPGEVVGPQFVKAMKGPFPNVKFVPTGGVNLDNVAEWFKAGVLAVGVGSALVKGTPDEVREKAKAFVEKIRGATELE

B1: 13E10 (mouse) (antibody, V domains shown)
VH: EVKLVESGGGLVQPGGSLSLSCAASGFTFTDYYMNWVRQPPGKALEWLGFIRNKDNGYTTEYSASVKGRFTISRDNSQSILYLQMNALRAEDSATYYCTRYYFGYDGDYFDYWGQGTTLTVSS
VL: EIVLTQSPTTMAASPGEKITITCSASSSISSNYLHWYQQKAGFSPKLLIYRTSNLASGVPARFSGSGSGTSYSLTIGTMEAEDVATYYCQQGSSLPRTFGGGTKLEIK
notes: Mouse IgG1 / kappa; also called 13E10 mIgG
B2: 13E10 hIgG1 (antibody, V domains shown)
VH: B1 VH
VL: EIVLTQSPTTMAASPGEKITITCSASSSISSNYLHWYQQKAGFSPKLLIYRTSNLASGVPARFSGSGSGTSYSLTIGTMEAEDVATYYCQQGSSLPRTFGGGTKLEIKR
notes: Recombinant form with human IgG1 Fc
B3: 42C2 (mouse) (antibody, V domains shown)
VH: QVTLKESGPGILQPSQTLSLTCSFSGFSLSTFGMGVVWTRQPSGKGLEWLAHIWWDDDNYYNPALKSRLTISKDTSKNQVFLKIANADTADTATYYCARIVKVLEQYFDVWGTGTTVTVSS
VL: DIMMTQSHKFMSTSVGDRVIFTCKASQDVGTAVAWYQQKSGQSPKLLIYWASTRHTGVPDRFTGSGSGTDFTLTISNVQSEDLADYFCQQYTSYPLTFGAGTKLELK
notes: Mouse IgG1 / kappa; also called 42C2 mIgG; 42C2 mAB
B4: 17E10 (antibody, mouse IgG1, V domains shown)
VH: QVQLQQPGAELVKPGASVKMSCKASGYTFTSYWITWVKQRPGQGLEWIGDIYPGSGSITYNEKFKTKATLTVDTSSSTAYMQLNSLTSEDSAVYYCAGLLRLTFDVWGTGTTVTVSS
VL: DIQLTQTTSSLSASLGDRVTISCRASQDISNYLNWYQQKPDGTVKLLISYTSGLHSGVPSRFSGSGSGTDYSLTISNLEQEDIATYFCQQGNTLPWTFGGGTKLEIK
B5: 17D10 (mouse) (antibody, V domains shown)
VH: B4 VH
VL: B4 VL
notes: Mouse IgG1 / kappa; also called Mouse 17D10 mAB; 17D10 mIgG
B6: 17D10 hIgG1 (antibody, V domains shown)
VH: B4 VH
VL: DIQLTQTTSSLSASLGDRVTISCRASQDISNYLNWYQQKPDGTVKLLISYTSGLHSGVPSRFSGSGSGTDYSLTISNLEQEDIATYFCQQGNTLPWTFGGGTKLEIKR
notes: Recombinant form with human IgG1 Fc; also called Human 17D10 mAB; 171D10 hIgG1
B7: 42C2 hIgG1 (antibody, V domains shown)
VH: B3 VH
VL: DIMMTQSHKFMSTSVGDRVIFTCKASQDVGTAVAWYQQKSGQSPKLLIYWASTRHTGVPDRFTGSGSGTDFTLTISNVQSEDLADYFCQQYTSYPLTFGAGTKLELKR
notes: as for B2

These binders were tested against T2, DS-Cav1 (RSV control) (UniProt P03420 26-513) (assay: Octet biolayer interferometry, bottom panel titled 'anti-DS-Cav1-CompA specificity'; format and concentrations not given).
T2 construct: also called RSV F protein; RSV F
B1: no binding.
B2: no binding.

These binders were tested against T3, hMPV F protein on hMPV/A virus (human metapneumovirus, subtype A, UniProt Q6WB98 19-539) (assay: cell-based or functional assay).
For B3, the “hMPV/A neutralization assay titer, supernatant” value was over 5 log2.
In the case of B1, the “hMPV/A neutralization assay titer, supernatant” value is reported as over 5 log2.
In the case of B4, the “hMPV/A neutralization assay titer, supernatant” value is reported as over 5 log2.
B5 was tested, and the “hMPV/A neutralization assay titer, supernatant” value was over 5 log2.

Molecular target: T1, hMPV033 antigen (ectodomain 1-472 of …)
Assay: BLI (Octet)
B6: binds.

Each binder was assayed against T2, DS-Cav1 (RSV control) (assay: Octet biolayer interferometry, bottom panel titled 'anti-DS-Cav1-dn5B specificity'; format and concentrations not given).
B6: no binding.
B5: no binding.

Molecular target: T1, hMPV033 antigen (ectodomain 1-472 of …)
Assay: Octet biolayer interferometry: mouse antibody captured on Protein G biosensors, CompA-hMPV033 (panel title 'Pre Fusion hMPV-F') at 10 µg/mL in solution, 120 s association and 120 s dissociation
B3: binds.
B1: binds.
B5: binds.

Molecular target: T1, hMPV033 antigen (ectodomain 1-472 of …)
Assay: summary of characterisation
B7: binds.
B2: binds.

Molecular target: T2, DS-Cav1 (RSV control)
Assay: Octet biolayer interferometry, bottom panel titled 'anti-DS-Cav1-CompA specificity'; format and concentrations not given
Remark: another data set of the same source
B3: no binding.
B7: no binding.

Molecular target: T3, hMPV F protein on hMPV/A virus
Assay: cell-based or functional assay
Remark: another data set of the same source
Target sequence in this assay (Q6WB98 19-539): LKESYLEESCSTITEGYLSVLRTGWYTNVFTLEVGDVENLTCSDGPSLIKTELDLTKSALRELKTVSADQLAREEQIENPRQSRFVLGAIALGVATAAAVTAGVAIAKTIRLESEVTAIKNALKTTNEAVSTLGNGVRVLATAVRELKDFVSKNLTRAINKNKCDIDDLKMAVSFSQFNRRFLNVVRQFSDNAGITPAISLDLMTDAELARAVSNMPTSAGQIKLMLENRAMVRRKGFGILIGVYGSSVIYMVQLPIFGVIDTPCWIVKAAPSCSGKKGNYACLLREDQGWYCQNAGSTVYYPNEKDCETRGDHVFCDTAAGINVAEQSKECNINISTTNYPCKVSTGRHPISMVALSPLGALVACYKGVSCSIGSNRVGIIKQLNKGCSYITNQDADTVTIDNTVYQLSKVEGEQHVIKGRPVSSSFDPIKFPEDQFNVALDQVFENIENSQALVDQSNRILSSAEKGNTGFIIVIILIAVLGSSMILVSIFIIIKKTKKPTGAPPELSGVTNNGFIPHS
In the case of B3, the “IC50, final serum dilution” value is reported as 0.0977 µg/mL, the “IC50, original serum dilution” value is reported as 0.391 µg/mL and the “hMPV/A RL Bx Titer (Log 2), microneutralization assay” value is reported as 9 log2.
In the case of B7, the “IC50, final serum dilution” value is reported as 0.0691 µg/mL, the “IC50, original serum dilution” value is reported as 0.276 µg/mL and the “hMPV/A RL Bx Titer (Log 2), microneutralization assay” value is reported as 9.5 log2.
B1 was tested, and the “IC50, final serum dilution” value was 0.195 µg/mL, the “IC50, original serum dilution” value was 0.781 µg/mL and the “hMPV/A RL Bx Titer (Log 2), microneutralization assay” value was 8 log2.
For B2, the “IC50, final serum dilution” value was 0.0977 µg/mL, the “IC50, original serum dilution” value was 0.391 µg/mL and the “hMPV/A RL Bx Titer (Log 2), microneutralization assay” value was 9 log2.
With B6 the “IC50, final serum dilution” value was 0.0345 µg/mL, the “IC50, original serum dilution” value was 0.138 µg/mL and the “hMPV/A RL Bx Titer (Log 2), microneutralization assay” value was 10.5 log2.
In the case of B5, the “IC50, final serum dilution” value is reported as 0.0488 µg/mL, the “IC50, original serum dilution” value is reported as 0.195 µg/mL and the “hMPV/A RL Bx Titer (Log 2), microneutralization assay” value is reported as 10 log2.
